Laboratory results as given in patent publication US20250296996A1 (BROADWING BIO, published 2025).

T1: P62 (huANGPTL7-his) (human, UniProt O43827 27-346)
T1 construct: not shown: C-terminal short linker and His tag
T1 chain: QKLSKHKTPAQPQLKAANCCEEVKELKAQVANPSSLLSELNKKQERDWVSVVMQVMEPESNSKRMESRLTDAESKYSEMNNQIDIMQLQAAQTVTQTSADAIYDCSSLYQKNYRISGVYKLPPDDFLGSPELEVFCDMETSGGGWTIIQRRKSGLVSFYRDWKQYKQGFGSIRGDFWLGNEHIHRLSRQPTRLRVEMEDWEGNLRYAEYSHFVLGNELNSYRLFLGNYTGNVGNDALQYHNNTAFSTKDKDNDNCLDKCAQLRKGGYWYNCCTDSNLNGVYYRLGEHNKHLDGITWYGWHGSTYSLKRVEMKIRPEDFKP

T2: Pext-01 (huANGTPL7-FLAG multimer) (human, UniProt O43827 27-346)
T2 construct: also called PExt-1; human wild type ANGPTL7 multimer; not shown: FLAG tag
T2 sequence: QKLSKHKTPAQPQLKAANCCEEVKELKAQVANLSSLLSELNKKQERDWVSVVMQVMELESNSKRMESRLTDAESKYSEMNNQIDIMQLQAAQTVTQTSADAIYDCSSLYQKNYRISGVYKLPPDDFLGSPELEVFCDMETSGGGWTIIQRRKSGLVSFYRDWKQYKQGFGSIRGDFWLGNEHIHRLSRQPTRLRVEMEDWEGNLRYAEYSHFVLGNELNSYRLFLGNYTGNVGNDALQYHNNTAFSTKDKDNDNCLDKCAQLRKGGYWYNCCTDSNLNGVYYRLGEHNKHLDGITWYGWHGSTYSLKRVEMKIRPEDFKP

T3: muANGPTL7-his (R&D Systems) (mouse, UniProt Q8R1Q3 22-337, limits assumed)
T3 construct: Bought protein; also called mouse ANGPTL7 protein
T3 sequence (looked up): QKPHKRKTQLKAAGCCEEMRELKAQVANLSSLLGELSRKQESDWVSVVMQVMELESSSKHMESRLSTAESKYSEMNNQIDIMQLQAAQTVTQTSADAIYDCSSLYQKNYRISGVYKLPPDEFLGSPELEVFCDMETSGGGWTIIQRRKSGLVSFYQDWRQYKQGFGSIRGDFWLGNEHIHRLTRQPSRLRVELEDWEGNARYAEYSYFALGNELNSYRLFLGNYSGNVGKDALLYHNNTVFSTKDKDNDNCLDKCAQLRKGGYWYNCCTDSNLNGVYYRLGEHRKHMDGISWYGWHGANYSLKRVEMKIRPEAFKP

B1: ATX-P-443 (antibody, human IgG1, kappa, N297A, V domains shown)
VH: QVQLVQSGAEVKKPGASVKVSCKASGYTFTSYGISWVRQAPGQGLEWMGWIIAYNGNTNYAQKLQGRITMTTNTSTNTAYMELRSLRSDDTAVYYCGRDTGFSFDYWGQGTLVTVSS
VL: not shown
notes: Full chains (VH + hIgG1-Agly-Fc)
B2: ATX-P-449 (antibody, human IgG1, kappa, N297A, V domains shown)
VH: QVQLVESGGGVVQPGRSLRLSCAASGFAFSSYGMHWVRQAPGKGLEWVAVISYYGSNKYYADSVKGRFTISRDNSKNTLYLQMNSLRAEDTAVYHCARGITMDVWGKGTTVTVSS
VL: EIVLTQSPATLSLSPGERATLSCRASQSVSSYLAWYQQKPGQAPRLLIYDASNRATGIPARFSGSGSGTDFTLTISSLEPEDFAVYYCQQRSNWPLTFGGGTKVEIKR
notes: as for B1
B3: ATX-P-428 (antibody, human IgG1, kappa, N297A, V domains shown)
VH: QVQLVQSGAEVKKPGASVKVSCKASGYTFSSYGISWVRQAPGQGLEWMGWISAYNGNTNYAQNLRGRVAMTTDTSTTTAYMELRSLRSDDTAVYYCARVSLVWFGELPRGFDYWGQGTLVTVSS
VL: not shown
notes: as for B1

Tests used:
[1] = biological target: T1, P62 (huANGPTL7-his); test: BLI Octet HTX; IgG on AHC sensor; P62 0.343-250 nM
Experimental: (§1) Experiments were also conducted to determine the reactivity and dissociation constants (KD) of anti-ANGPTL7 antibodies with the human ANGPTL7-his protein. Binding experiments were performed on Octet HTX (ForteBio) in 1×PBS, pH 7.4, 0.1 mg/mi BSA, 0.05% Sodium Azide, and 0.02% Tween 20. To measure monovalent binding kinetics, antibodies at a concentration of 50 nM were loaded on pre-hydrated AHC biosensors for 5 min. The loaded sensors were dipped into monovalent P62 (huANGPTL7-his) at a range of concentration from 0.343-250 nM (a serial 3-fold dilution) for 5 min association, followed by 10 min dissociation.

[2] = biological target: T2, Pext-01 (huANGTPL7-FLAG multimer); test: BLI Octet HTX; IgG on AHC sensor; Pext-01 at 100 nM
Experimental: Experiments were also conducted to determine the reactivity and dissociation constants (KD) of anti-ANGPTL7 antibodies with the human ANGPTL7 multimer protein. Binding experiments were performed on Octet HTX (ForteBio) in 1×PBS, pH 7.4, 0.1 mg/ml BSA, 0.05% Sodium Azide, and 0.02% Tween 20. Antibodies at a concentration of 50 nM were loaded on pre-hydrated AHC biosensors for 5 mi. The loaded sensors were dipped into Pext-01 (huANGTPL7-FLAG) at a concentration of 100 nM for 5 min of association, followed by 10 min of dissociation. […] Responses (nm) at the end of association were also determined (Table 7).

[3] = biological target: T3, muANGPTL7-his (R&D Systems); test: BLI Octet HTX; IgG on AHC sensor; muANGPTL7-his at 200 nM
Procedure, shortened: (§2)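 Anti-ANGPTL7 antibodies (50 nM) were loaded on AHC biosensors in PBS pH 7.4 with BSA, azide and Tween 20. Sensors were dipped in monovalent mouse ANGPTL7-his (200 nM) for 5 min association and 10 min dissociation. KD came from a 1:1 fit, and responses were taken at the end of association.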

[4] = biological target: T3, muANGPTL7-his (R&D Systems); test: BLI Octet HTX; IgG on AHC sensor; muANGPTL7-his at 200 nM; 1:1 fit
Procedure, shortened: as §2

[5] = biological target: T1, P62 (huANGPTL7-his); test: BLI Octet HTX; IgG on AHC sensor; P62 0.343-250 nM; global 1:1 fit
Experimental: as §1

Binder	binding result [1]	binding result [2]	binding result [3]	Kd [4]	Response [4]	binding result [5]
B1	no binding (tested: 250 nM)	no binding (tested: 100 nM)	no binding (tested: 200 nM)	–	–	–
B2	–	–	–	0.857 nM	0.75 nm	binds
B3	no binding (tested: 250 nM)	no binding (tested: 100 nM)	no binding (tested: 200 nM)	–	0.04 nm	–
